Results published in patent publication US9562073B2, “Matriptase and u-plasminogen activator substrates and other cleavable moieties and methods of use thereof” (CytomX Therapeutics, Inc., priority 2014, dated 2017).

Biological target: T1, Human matriptase-1 (Homo sapiens, UniProt Q9Y5Y6)
T1 construct: purchased Research & Diagnostics Systems, Inc
T1 sequence (Q9Y5Y6 1-855): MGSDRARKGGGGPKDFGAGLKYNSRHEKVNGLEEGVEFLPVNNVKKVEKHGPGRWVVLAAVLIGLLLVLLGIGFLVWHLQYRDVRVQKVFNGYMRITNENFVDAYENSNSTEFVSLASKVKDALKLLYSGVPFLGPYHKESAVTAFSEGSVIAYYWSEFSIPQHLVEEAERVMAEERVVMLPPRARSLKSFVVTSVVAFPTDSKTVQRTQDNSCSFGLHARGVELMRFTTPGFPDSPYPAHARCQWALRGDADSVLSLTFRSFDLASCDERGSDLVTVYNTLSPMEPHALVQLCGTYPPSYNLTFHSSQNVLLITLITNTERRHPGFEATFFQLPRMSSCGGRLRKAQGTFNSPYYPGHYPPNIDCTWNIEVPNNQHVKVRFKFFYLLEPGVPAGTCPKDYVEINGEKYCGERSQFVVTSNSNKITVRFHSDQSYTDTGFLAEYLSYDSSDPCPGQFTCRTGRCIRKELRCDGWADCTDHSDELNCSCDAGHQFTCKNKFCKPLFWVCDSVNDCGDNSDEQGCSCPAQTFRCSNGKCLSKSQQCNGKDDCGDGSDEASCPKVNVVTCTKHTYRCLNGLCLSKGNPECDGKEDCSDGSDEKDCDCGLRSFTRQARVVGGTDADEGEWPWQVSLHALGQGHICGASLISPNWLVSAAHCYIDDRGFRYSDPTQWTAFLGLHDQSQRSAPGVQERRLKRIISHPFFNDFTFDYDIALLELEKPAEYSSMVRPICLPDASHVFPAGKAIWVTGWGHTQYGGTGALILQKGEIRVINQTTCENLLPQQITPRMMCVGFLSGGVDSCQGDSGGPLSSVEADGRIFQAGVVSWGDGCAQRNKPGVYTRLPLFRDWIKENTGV
Assay: Substrate cleavage by matriptase-1 on cell-displayed platform scaffold (eCLiPS3.0), flow cytometry
Format: biochemical
Details: substrate displayed in platform scaffold; TBST
Experimental: Reagents and Strains: Streptavidin-conjugated phycoerythrin (SA-PE) (Invitrogen, Life Technologies) was used without modifications. Human matriptase-1 (Research & Diagnostics Systems, Inc.) was used without modifications. Human plasmin (Haematologic Technologies Inc.) was used without modifications. Human tPA (Molecular Innovations) was used without modifications. YPet fused to the SH3 domain of Mona (monocytic adaptor) was used without modifications. TBST, 50 mM Tris-HCl, 150 mM NaCl, 0.05% Tween20, pH 7.4, was used. […]
Substrate Cleavage and Scaffold Stability Analysis: For screening and clone analysis, overnight cultures were subcultured by dilution into fresh medium (1:50) and grown for 1.5-2 hours. […] After incubation on ice (30 min), cells were washed with PBS and analyzed using a FACSAria™ cell sorter.
For protease cleavage assays, cultures were induced for 1 hour. […] Background hydrolysis of the regions flanking the substrate site (using platform eCLiPS3.0-NSUB_SP described in PCT patent application PCT/US13/54378, filed Aug. 9, 2013 and published as WO 2014/026136 on Feb. 13, 2014), was measured under each reaction condition to ensure that hydrolysis occurred in the designated substrate region. […]
Specifically, for each sample, conversion was determined by flow cytometry analyses using the relationship […]
[formula] allowing substrate conversion to be expressed as […]

cleavage by matriptase-1: cleavage
Sequence: VAGRSMRP (Cleavable moiety)
